Reference: PMC10803253, “Structural insights into the iron nitrogenase complex” (Nature Structural & Molecular Biology, 2023)

B1: Fe nitrogenase reductase component AnfH2 (Rhodobacter capsulatus) (enzyme, UniProt Q07942 1-275, looked up)
chain: MTRKIAIYGKGGIGKSTTTQNTAAALAFFHEKNVFIHGCDPKADSTRLILGGLPQQTVMDTLRIEGAERVTVDKVVKTGFKDIRCVESGGPEPGVGCAGRGVITAIDLMEENEAYSEDLDFLFFDVLGDVVCGGFAMPIRDGKAEEVYIVASGEMMAIYAANNICKGLAKYARQSGVRLGGIICNSRNVDGEKEFLEEFTKAIGTKMIHFVPRDNIVQKAEFNKQTVTEFQPEANQAQEYRELGRKIIENEDFVIPKPLAMDELEAMVVKYGLMD
notes: AnfH, nitrogenase iron protein of the Fe-only nitrogenase, Rhodobacter capsulatus B10S; the anfHDGK operon was amplified whole from genomic DNA; Homodimer with one [Fe4S4] cluster between the two chains; in the trapped complex one MgADP·AlF3 per chain; His6-tag inserted without any linker; no cleavage step is described; also called H subunit
B2: AnfK, K subunit of the Fe nitrogenase catalytic component (Rhodobacter capsulatus) (natural protein, UniProt Q07935 1-460, looked up)
chain: MTCQVTQKAREGTINPIFTCQPAGAQFASIGIKDCIGIVHGGQGCVMFVRLLISQHMKESFEIASSSVHEDGAVFGALDRVETAVEVLLTRYPDVKVVPIITTCSTEIIGDDVDGLLSKLEDELLPTKFPGREVHLLTVHCPSFVGSMITGYDKAVHDFVKKFATKDEPSDKINLITGWVNPGDVKELKHLLEVMEVKANVLFEVESFDSPLMPDLEHHSHGSTTIEDLRDTANAKGTIALNRYEGMKAADYLKKKFKVPAVIGPTPVGIRNTDAFLKAVSEMTGQPIPAQLVKERGLALDAIADIGHMFLADKRVAIYANPDLAIGLTEFCLDLEMKPKLLLLGDDNSGYVKDPRVVALQENAPDLEIVTNADFWDLESRIQQGLELDLILGHSKGRFISIDYKVPMVRVGFPTYDRAGMYRHPVLGYGGAMFLAETMANTLFADMEAKKNKEWILNVW
notes: AnfK, beta (K) subunit of the Fe-only nitrogenase, Rhodobacter capsulatus B10S; the anfHDGK operon was amplified whole from genomic DNA; Single subunit, written for the subunit-to-subunit rows of the complexes solved here
B3: AnfG, G subunit of the Fe nitrogenase catalytic component (Rhodobacter capsulatus) (natural protein, UniProt Q07934 1-115, looked up)
chain: MTDISEKLDPLVDYIMKNCLWQFNSRGWDRLKQNAGILSQTCEILCGEEPVHETAMDRCYWVDAVILSRAYKARFPWLMAMTKPEIKSLFKALHEKIDHLTVHGSLNTELTVPHY
notes: AnfG, delta (G) subunit of the Fe-only nitrogenase, Rhodobacter capsulatus B10S; the anfHDGK operon was amplified whole from genomic DNA; Single subunit, written for the subunit-to-subunit rows of the complexes solved here

Tests used:
[1] = molecular target: the molecule itself; assay: mass photometry; individual nitrogenase components; 500 nM stock diluted 0.5 µl into 19.5 µl of 150 mM NaCl, 50 mM Tris pH 7.8, 10% glycerol, 10 mM dithionite
[2] = molecular target: T1, Fe nitrogenase catalytic component Anf(DGK)2 (Rhodobacter capsulatus) (Rhodobacter capsulatus, UniProt Q07933 1-526; Q07934 1-115; Q07935 1-460); assay: SEC; 4 nmol catalytic and 32 nmol reductase component, 1 h at 30 °C in 100 mM MOPS, 50 mM Tris, 100 mM NaCl pH 7.3, 5 mM dithionite, 4 mM NaF, 0.2 mM AlCl3, 8 mM MgCl2, 1 mM ATP (ADP·AlF3 trap); SEC in 50 mM Tris pH 7.8, 200 mM NaCl, 5 mM dithionite; anaerobic; details: both partners purified
T1 construct: AnfD, alpha (D) subunit of the Fe-only nitrogenase, Rhodobacter capsulatus B10S; the anfHDGK operon was amplified whole from genomic DNA; AnfG, delta (G) subunit of the Fe-only nitrogenase, Rhodobacter capsulatus B10S; AnfK, beta (K) subunit of the Fe-only nitrogenase, Rhodobacter capsulatus B10S; Heterohexamer with two P-clusters [Fe8S7] and two FeFeco [Fe8S9C-(R)-homocitrate]; Strep-tag II …

[3] = molecular target: T2, AnfD, D subunit of the Fe nitrogenase catalytic component (Rhodobacter capsulatus) (Rhodobacter capsulatus, UniProt Q07933 1-526); assay: cryo-EM structure; catalytic component Anf(DGK)2 alone with CHAPSO (0.4% m/V) added on the grid right before plunge freezing; 2.49 Å, C2 symmetry; details: both partners purified
T2 construct: AnfD, alpha (D) subunit of the Fe-only nitrogenase, Rhodobacter capsulatus B10S; the anfHDGK operon was amplified whole from genomic DNA; Single subunit, written for the subunit-to-subunit rows of the complexes solved here

[4] = molecular target: B1; assay: cryo-EM structure; ADP·AlF3-stabilized Anf(DGK)2(H2)2 complex after SEC, 1 mg/ml, anaerobic plunge freezing, no detergent; 2.35 Å, C2 symmetry; details: both partners purified
[5] = molecular target: T2, AnfD, D subunit of the Fe nitrogenase …; assay: mass photometry; individual nitrogenase components; 500 nM stock diluted 0.5 µl into 19.5 µl of 150 mM NaCl, 50 mM Tris pH 7.8, 10% glycerol, 10 mM dithionite; details: both partners purified

## B1
[1]
  stoichiometry N: 2 subunits in the oligomer
[2]
  stoichiometry N: 2 AnfH2 per Anf(DGK)2

## B2
[3]
  binding result: binds

## B3
[4]
  binding result: binds
[5]
  binding result: binds
